Experimental data: paper PMC3759449

Columns and labels:
[1] = biological target: NrCAM, rat (pcDNA3 plasmid) (rat) (UniProt P97686)
[2] = biological target: NrCAM, rat, tyrosine-phosphorylated in the FIGQY motif by co-expressed EphB2 (rat) (UniProt P97686)

percent of cells with ankyrinG-EGFP recruited to the plasma membrane, HEK293 cells co-expressing ankyrin/NrCAM/EphB2 KD (kinase dead mutant K662R) [1]: 84% | percent of cells with ankyrinG-EGFP recruited to the plasma membrane, HEK293 cells co-expressing ankyrin/NrCAM/EphB2 [2]: 7%
Substance: ankyrinG-EGFP fusion protein (from UniProt O70511 1-2622) (natural protein)
